The results in this text go back to doi:10.1101/2025.11.29.689641.

This assay concerns the target SoP450 from Shimazuella soli (CPR-containing self-sufficient cytochrome P450, homologue of P450BM3) (Shimazuella soli). As to the kind of experiment: SEC.

In the case of “SoP450 from Shimazuella soli (CPR-containing self-sufficient cytochrome P450, homologue of P450BM3) (enzyme)”, the stoichiometry N (in general, the number of molecules, sites or subunits per partner or assembly) was 2.
